Results published in article PMC9135708.

Target: anti-PfTRAP mAb AKBR-7 (mouse)
Experiment: BLI; Octet QKe; antibodies in culture supernatants immobilized on anti-Mouse IgG Fc Capture biosensors; antigen serially diluted (1–1000 nM) in 10x Kinetics Buffer (PBS + 0.1% BSA, 0.02% Tween-20, 0.05% sodium azide); fit to the 1:1 binding model

Kd: 0.15 nM
B1: Plasmodium falciparum TRAP ectodomain (PfTRAP) (domain or fragment)
chain: RDVQNNIVDEIKYSEEVCNDQVDLYLLMDCSGSIRRHNWVNHAVPLAMKLIQQLNLNDNAIHLYVNVFSNNAKEIIRLHSDASKNKEKALIIIRSLLSTNLPYGRTNLTDALLQVRKHLNDRINRENANQLVVILTDGIPDSIQDSLKESRKLSDRGVKIAVFGIGQGINVAFNRFLVGCHPSDGKCNLYADSAWENVKNVIGPFMKAVCVEVEKTASCGVWDEWSPCSVTCGKGTRSRKREILHEGCTSEIQEQCEEERCPPKWEPLDVPDEPEDDQPRPRGDNSSVQKPEENIIDNNPQEPSPNPEEGKDENPNGFDLDENPENPPNPDIPEQKPNIPEDSEKEVPSDVPKNPEDDREENFDIPKKPENKHDNQNNLPNDKSDRNIPYSPLPPKVLDNERKQSDPQSQDNNGNRHVPNSEDRETRPHGRNNENRSYNRKYNDTPKHPEREEHEKPDNNKKKGESDNKYK
modifications: site-specific biotinylation using BirA ligase, when required
